Data on one substance can be found in patent US20250108100A1, “C-TERMINAL FRAGMENT OF APOLIPOPROTEIN E AND APPLICATION THEREOF IN INHIBITING y-SECRETASE ACTIVITY” (SYNPHATEC (SHANGHAI) BIOPHARMACEUTICAL TECHNOLOGY CO., LTD., priority 2022, published 2025).

The experiment addresses purified human γ-secretase (NCT-V5-6×His; FLAG-PEN2; APH; PS1) (human) (UniProt Q92542). Kind of experiment: cell-based or functional assay.

Sequence of ApoE2-3×FLAG (purified) (P02649 19-317 R176C): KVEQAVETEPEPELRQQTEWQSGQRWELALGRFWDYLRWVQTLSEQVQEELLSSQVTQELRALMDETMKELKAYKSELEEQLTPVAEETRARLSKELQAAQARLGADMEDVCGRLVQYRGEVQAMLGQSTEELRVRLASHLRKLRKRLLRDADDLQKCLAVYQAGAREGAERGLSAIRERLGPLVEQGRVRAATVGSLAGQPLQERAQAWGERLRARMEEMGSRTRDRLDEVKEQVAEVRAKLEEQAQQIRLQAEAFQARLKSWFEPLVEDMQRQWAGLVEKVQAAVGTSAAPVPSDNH

“ApoE2-3×FLAG (purified) (from UniProt P02649 19-317)”: the IC50 for Aβ production on co-incubation of purified β-CTF and γ-secretase with a concentration series of ApoE2 (ELISA) was determined as 1.2 µM; the half-inhibitory concentration (IC50) for Aβ40 production from purified β-CTF by purified γ-secretase (ELISA) was 1.2 µM.
